Experimental findings from publication PMC3031671 are described below.

The test concerns the target Fibronectin (FN) purified from human plasma (human). Put plainly: ELISA.

In the case of “Full-length MMP-2^E404A (catalytically inactive, ligand-binding matrix metalloproteinase-2) (from UniProt P08253 30-660) (enzyme)”, the Kd stood at 20 nM.

Consider “Isolated recombinant hemopexin-like carboxyl-terminal domain of MMP-2 (PEX) (from UniProt P08253 446-660) (domain or fragment)”, for which the Kd stood at 100 nM. This Kd is about 5-fold higher than that of the substance before.
